This is an account of results in patent US20220154156A1, “PROTEINS AND METHODS FOR DISRUPTING BACTERIAL COMMUNICATION” (REGENTS OF THE UNIVERSITY OF MINNESOTA, priority 2019, published 2022).

The assay can be described thus: Lactonase assay (pH indicator, cresol purple), kinetic measurements. The class given is biochemical. Conditions: AHL acyl chain length. The protocol: Kinetic measurements. The determination of GcL catalytic efficiency was performed by using a microplate reader (Synergy HTX, BioTek, USA) and the software Gen5.1 over a range of substrates (FIG. 2). The reactions were operate in a 96-well plate at a path length of 5.8 mm for a 200 μl reaction volume at room temperature. The catalytic parameters were achieved by fitting the data to Michaelis-Menten equation with the Graph-Pad Prism 5 software. When, Vmax was not reached, the catalytic efficiency was determined by fitting the linear part of Michaelis-Menten plot to a linear regression using Graph-Pad Prism 5.
Lactonase assay. The AHL lactonolysis consisting in the opening of the lactone ring generates a proton, and leads to an acidification of the media. This property allowed the characterization of the lactonases by using a pH indicator assay. To perform the experiment 5 μl of enzyme were added to a solution containing 10 μl of substrates at various concentrations and 185 μl of lactonase buffer (2.5 mM Bicine pH 8.3, 150 mM NaCl, 0.2 mM CoCl2, 0.2 mM cresol purple, 0.5% DMSO). This assay was performed at 25° C. and the time course of the lactones hydrolysis was recorded at 577 nm. The characterization of the enzyme was proceeding against a large panel of AHLs: C4-AHL, C6-AHL, C8-AHL, C10-AHL, 3-oxo-C8-AHL and against γ-Butyrolactone, γ-Heptalactone, γ-Nonalactone, γ-Decanolactone, δ-Valerolactone, δ-Octanolactone, δ-Nonalactone, δ-Decalactone, ε-Caprolactone, ε-Decalactone, Whiskey lactone.

B1: SsoPox W263I: improved variant of the hyperthermostable lactonase SsoPox from Sulfolobus solfataricus, exhibiting higher catalytic rates (protein, UniProt Q97VT7 1-314, looked up, variant W263I)
Aryldialkylphosphatase: MRIPLVGKDSIESKDIGFTLIHEHLRVFSEAVRQQWPHLYNEDEEFRNAVNEVKRAMQFGVKTIVDPTVMGLGRDIRFMEKVVKATGINLVAGTGIYIYIDLPFYFLNRSIDEIADLFIHDIKEGIQGTLNKAGFVKIAADEPGITKDVEKVIRAAAIANKETKVPIITHSNAHNNTGLEQQRILTEEGVDPGKILIGHLGDTDNIDYIKKIADKGSFIGLDRYGLDLFLPVDKRNETTLRLIKDGYSDKIMISHDYCCTIDIGTAKPEYKPKLAPRWSITLIFEDTIPFLKRNGVNEEVIATIFKENPKKFFS
Consider B1, for which the substrate specificity entry is reported as “not capable of degrading short chain AHLs”.
